Changes are numbered by the printed parent chain.
T1: human CD19 on cells (Nalm-6, Z-138) (human, UniProt P15391 20-556)
T1 construct: whole, on cells; also called CD19-expressing cells; CD19+ target cells
T1 sequence (looked up): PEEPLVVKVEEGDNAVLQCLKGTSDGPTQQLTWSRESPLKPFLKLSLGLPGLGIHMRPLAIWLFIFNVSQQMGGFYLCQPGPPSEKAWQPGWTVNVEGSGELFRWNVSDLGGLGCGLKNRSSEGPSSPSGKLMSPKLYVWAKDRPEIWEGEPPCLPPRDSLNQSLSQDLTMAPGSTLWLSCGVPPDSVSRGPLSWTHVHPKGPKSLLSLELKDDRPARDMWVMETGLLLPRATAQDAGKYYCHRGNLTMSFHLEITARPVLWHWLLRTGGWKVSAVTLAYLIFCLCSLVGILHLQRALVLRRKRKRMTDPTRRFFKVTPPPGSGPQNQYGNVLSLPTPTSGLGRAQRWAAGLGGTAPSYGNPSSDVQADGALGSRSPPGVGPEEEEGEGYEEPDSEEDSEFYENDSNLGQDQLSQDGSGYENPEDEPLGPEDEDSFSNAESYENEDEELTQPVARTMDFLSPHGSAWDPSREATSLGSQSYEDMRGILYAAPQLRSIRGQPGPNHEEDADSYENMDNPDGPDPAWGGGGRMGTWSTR

B1: CD19-TCB, CD19(018) CD3orig (bispecific antibody, human IgG1, kappa, L234A L235A)
heavy 1: not shown
heavy 2: QVQLVQSGAEVKKPGASVKVSCKASGYTFTDYIMHWVRQAPGQGLEWMGYINPYNDGSKYTEKFQGRVTMTSDTSISTAYMELSRLRSDDTAVYYCARGTYYYGSALFDYWGQGTTVTVSSASTKGPSVFPLAPSSKSTSGGTAALGCLVEDYFPEPVTVSWNSGALTSGVHTFPAVLQSSGLYSLSSVVTVPSSSLGTQTYICNVNHKPSNTKVDEKVEPKSCDKTHTCPPCPAPEAAGGPSVFLFPPKPKDTLMISRTPEVTCVVVDVSHEDPEVKFNWYVDGVEVHNAKTKPREEQYNSTYRVVSVLTVLHQDWLNGKEYKCKVSNKALGAPIEKTISKAKGQPREPQVCTLPPSRDELTKNQVSLSCAVKGFYPSDIAVEWESNGQPENNYKTTPPVLDSDGSFFLVSKLTVDKSRWQQGNVFSCSVMHEALHNHYTQKSLSLSP
light 1: DIVMTQTPLSLSVTPGQPASISCKSSQSLENPNGNTYLNWYLQKPGQSPQLLIYRVSKRFSGVPDRFSGSGSGTDFTLKISRVEAEDVGVYYCLQLTHVPYTFGQGTKLEIKRTVAAPSVFIFPPSDRKLKSGTASVVCLLNNFYPREAKVQWKVDNALQSGNSQESVTEQDSKDSTYSLSSTLTLSKADYEKHKVYACEVTHQGLSSPVTKSFNRGEC
light 2: EVQLLESGGGLVQPGGSLRLSCAASGFTFSTYAMNWVRQAPGKGLEWVSRIRSKYNNYATYYADSVKGRFTISRDDSKNTLYLQMNSLRAEDTAVYYCVRHGNFGNSYVSWFAYWGQGTLVTVSSASVAAPSVFIFPPSDEQLKSGTASVVCLLNNFYPREAKVQWKVDNALQSGNSQESVTEQDSKDSTYSLSSTLTLSKADYEKHKVYACEVTHQGLSSPVTKSFNRGEC
notes: 2+1 IgG CrossFab, inverted; human IgG1 Fc, knob-into-hole, PGLALA
B2: CD19-TCB, CD19(2B11) CD3orig (bispecific antibody, human IgG1, kappa, L234A L235A)
heavy 1: not shown
heavy 2: B1 heavy 2 with S105P, A106Q
light 1: B1 light 1 with N31T, P32S, N33T, N35T, T97L, H98E, V99D
light 2: B1 light 2
notes: as for B1
B3: CD19-TCB, CD19(018) CD3 variant P035.093 (bispecific antibody, human IgG1, kappa, L234A L235A)
heavy 1: not shown
heavy 2: B1 heavy 2
light 1: B1 light 1
light 2: B1 light 2 with T31S, H101A, G102S, G105P, N106A, W111Y
notes: as for B1
B4: CD19-TCB, CD19(2B11) CD3 variant P035.093 (bispecific antibody, human IgG1, kappa, L234A L235A)
heavy 1: not shown
heavy 2: B1 heavy 2 with S105P, A106Q
light 1: B1 light 1 with N31T, P32S, N33T, N35T, T97L, H98E, V99D
light 2: B1 light 2 with T31S, H101A, G102S, G105P, N106A, W111Y
notes: as for B1
B5: anti-CD3 antibody clone P004.042 in monovalent IgG format (antibody)
heavy: not shown
chain: DKTHTCPPCPAPEAAGGPSVFLFPPKPKDTLMISRTPEVTCVVVDVSHEDPEVKFNWYVDGVEVHNAKTKPREEQYNSTYRVVSVLTVLHQDWLNGKEYKCKVSNKALGAPIEKTISKAKGQPREPQVCTLPPSRDELTKNQVSLSCAVKGFYPSDIAVEWESNGQPENNYKTTPPVLDSDGSFFLVSKLTVDKSRWQQGNVFSCSVMHEALHNHYTQKSLSLSP
light: EVQLLESGGGLVQPGGSLRLSCAASGFQFDNYAMNWVRQAPGKGLEWVSRIRTKYNEYATYYADSVKGRFTISRDDSKNTLYLQMNSLRAEDTAVYYCVRASNFPQSYVSYFGYWGQGTLVTVSSASVAAPSVFIFPPSDEQLKSGTASVVCLLNNFYPREAKVQWKVDNALQSGNSQESVTEQDSKDSTYSLSSTLTLSKADYEKHKVYACEVTHQGLSSPVTKSFNRGEC
notes: also called monovalent IgG P004.042

Assays:
[1] = biological target: T2, CD19 extracellular domain (ECD)-Fc fusion (human, UniProt P01857 104-328 = IgG part); assay: SPR, TCB captured by anti-PG antibody, CD19 ECD-Fc as analyte, 25°C
T2 construct: Monovalent CD19 ECD on a knob-into-hole Fc; also called CD19 antigen; recombinant human CD19
Procedure: (§1) SPR experiments were performed, using the CD19-TCB molecules prepared in Example 15, on a Biacore T200 instrument at 25° C. with HBS-EP+ as running buffer (0.01 M HEPES pH 7.4, 0.15 M NaCl, 0.005% Surfactant P20 (GE Healthcare, #BR-1006-69)). Anti-PG antibody (see Example 3) was directly immobilized by amine coupling on a C1 chip (GE Healthcare). The different TCB molecules were captured at 25 nM. Three-fold dilution series (in HBS-EP from 0.14 to 100 nM) of the CD19 antigen (CD19 extracellular domain (ECD)-Fc fusion; see SEQ ID NOs 99 and 100) or the CD3 antigen (see Example 3, SEQ ID NOs 41 and 42) were passed over the ligand at 30 μl/min for 240 s to record the association phase. The dissociation phase was monitored for 1500 s (CD19 antigen) or 800 s (CD3 antigen)s and triggered by switching from the sample solution to HBS-EP+. The chip surface was regenerated after every cycle using two injections of 10 mM glycine pH 2.1 for 60 sec. Bulk refractive index differences were corrected for by subtracting the response obtained on the reference flow cell (without captured TCB). The affinity constants were derived from the kinetic rate constants by fitting to a 1:1 Langmuir binding using the Biaeval software (GE Healthcare). The measurement was performed with three independent dilution series.

[2] = biological target: T1, human CD19 on cells (Nalm-6, Z-138); assay: flow cytometry on Nalm-6 cells
Procedure: (§2) The binding of the CD19-TCB molecules prepared in Example 15 to human CD19- and CD3-expressing target cells was tested. Two CD19-expressing cell lines with different levels of CD19 expression were used. Nalm-6, an acute lymphoblastic leukemia (ALL) cell line with high CD 19 expression and Z-138 (Mantle cell lymphoma) with average expression levels. CD3-binding was assessed using immortalized T lymphocyte line (Jurkat cell line). Briefly, cells were harvested, counted, checked for viability and resuspended at 1×10⁶ cells/ml in FACS buffer (PBS+2% FCS+5 mM EDTA+0.25% sodium azide). […] Binding curves and the EC50 values related to binding were calculated using GraphPad Prism 7.

[3] = biological target: T3, Human CD3ε stalk-Fc(knob)-Avi/CD3δ stalk-Fc(hole) (human); assay: SPR, TCB captured by anti-PG antibody, human CD3ε/δ-Fc as analyte, 25°C
T3 construct: Heterodimer of CD3 delta and CD3 epsilon ectodomains fused to human Fc with knob-into-hole; also called human CD3ε/δ; CD3 antigen
Procedure: as §1

[4] = biological target: T1, human CD19 on cells (Nalm-6, Z-138); assay: cell-based or functional assay
[5] = biological target: T4, human CD3 on cells (CD3ε) (human, UniProt P07766 23-207); assay: flow cytometry on Jurkat cells
T4 construct: CD3 complex as it stands on Jurkat cells or primary T cells; also called CD3-expressing Jurkat cells; CD3-expressing T cells
Procedure: as §2

[6] = biological target: T5, Cynomolgus CD3ε stalk-Fc(knob)-Avi/CD3δ stalk-Fc(hole) (cynomolgus); assay: SPR, monovalent IgG captured by anti-PG antibody, antigen as analyte, 25°C; bad fit quality per footnote
T5 construct: also called cynomolgus CD3ε/δ
Procedure: (§3) SPR experiments were performed as described in Example 3, with the monovalent IgG molecules prepared in Example 19.
(§4) To analyze the interaction to CD3, IgG molecules were captured for 240 s at 50 nM with a flow rate of 5 μl/min. Human and cynomolgus CD3F stalk-Fc(knob)-Avi/CD36-stalk-Fc(hole) were passed at a concentration of 0.061-250 nM with a flow rate of […] through the flow cells for 300 s. The dissociation was monitored for 800 s.

[7] = biological target: T3, Human CD3ε stalk-Fc(knob)-Avi/CD3δ …; assay: as above
Procedure: as §3, §4

[8] = biological target: T3, Human CD3ε stalk-Fc(knob)-Avi/CD3δ …; assay: SPR on immobilized human CD3ε/δ after stress, relative to sample kept at -80°C pH 6
Procedure: All SPR experiments were performed on a Biacore T200 instrument (GE Healthcare) at 25° C. with HBS-P+ (10 mM HEPES, 150 mM NaCl pH 7.4, 0.05% Surfactant P20) as running and dilution buffer. Biotinylated human CD3ε/δ (see Example 3, SEQ ID NOs 41 and 42) as well as biotinylated anti-huIgG (Capture Select, Thermo Scientific, #7103262100) were immobilized on a Series S Sensor Chip SA (GE Healthcare, #29104992), resulting in surface densities of at least 1000 resonance units (RU). Anti-CD3 antibodies with a concentration of 2 μg/ml were injected for 30 s at a flow rate of 5 μl/min, and dissociation was monitored for 120 s. The surface was regenerated by injecting 10 mM glycine pH 1.5 for 60 s. Bulk refractive index differences were corrected by subtracting blank injections and by subtracting the response obtained from a blank control flow cell. For evaluation, the binding response 5 seconds after injection end was taken. To normalize the binding signal, the CD3 binding was divided by the anti-huIgG response (the signal (RU) obtained upon capture of the CD3 antibody on the immobilized anti-huIgG antibody). The relative binding activity was calculated by referencing each temperature stressed sample to the corresponding, non-stressed sample.
The experiment was performed as described in Example 4, using the monovalent IgG molecules prepared in Example 19.

T4 sequence (P07766 23-207 limits assumed): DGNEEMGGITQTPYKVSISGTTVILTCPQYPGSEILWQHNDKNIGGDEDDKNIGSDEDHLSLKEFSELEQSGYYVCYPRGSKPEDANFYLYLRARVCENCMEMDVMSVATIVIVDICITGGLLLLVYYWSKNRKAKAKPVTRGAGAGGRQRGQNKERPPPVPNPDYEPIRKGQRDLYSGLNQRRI

Binder | Kd [1] [nM] | koff [1] [s⁻¹] | kon [1] [M⁻¹ s⁻¹] | t1/2 [1] [min] | EC50 [2] [nM] | Kd [3] [nM] | koff [3] [s⁻¹] | kon [3] [M⁻¹ s⁻¹] | t1/2 [3] [min] | EC50 (pM) of tumor cell lysis, Nalm-6 target cells [4] [pM] | EC50 (pM) of tumor cell lysis, Z-138 target cells [4] [pM] | EC50 [5] [nM] | other results
B1 | 0.95 | 0.000316 | 333000 | 36.6 | 1.5 | 3.57 | 0.00333 | 933000 | 3.5 | 0.3 | 5.4 | 115 | –
B2 | 0.4 | 0.000176 | 434000 | 65.6 | 0.7 | 3.36 | 0.00378 | 1.13e+06 | 3.1 | 0.3 | 4.8 | 203 | –
B3 | 1.27 | 0.000392 | 310000 | 29.5 | 1.2 | 0.37 | 0.00135 | 3.68e+06 | 8.6 | 0.9 | 8.1 | 38 | –
B4 | 0.32 | 0.000146 | 458000 | 79.1 | 0.6 | 0.38 | 0.00135 | 3.56e+06 | 8.6 | – | – | 22.3 | –
B5 | – | – | – | – | – | – | – | – | – | – | – | – | Kd [6]: 0.439 nM; koff [6]: 0.00809 s⁻¹; kon [6]: 1.85e+07 M⁻¹ s⁻¹; t1/2 [6]: 1.43 min; Kd [7]: 1.36 nM; koff [7]: 0.00852 s⁻¹; kon [7]: 6.28e+06 M⁻¹ s⁻¹; t1/2 [7]: 1.36 min; binding activity [%] after 2 weeks at pH 6.0/40°C [8]: 101%; binding activity [%] after 2 weeks at pH 7.4/37°C [8]: 98%
